Measured values taken from patent publication US20100303887A1, “DHA and PEDF, a Therapeutic Composition for Nerve and Retinal Pigment Epithelial Cells” (priority 2007, published 2010).

Assays:
Bcl-2 and Bfl-1 = assay: Anti-apoptotic protein expression in ARPE-19 cells under serum starvation/H2O2/TNFα oxidative stress (Western blot); assay type: cell-based, human; conditions: DHA 10 to 50 nM, with or without PEDF
Procedure: (§1) Exposure of ARPE-19 cells to growth factors. Cells at 75-80% confluence (72 hr growth in DMEM/F12+10% FBS) were serum-starved for 2 hr before exposure to growth factors. The serum-starved cells were treated with TNF-α (Sigma-Aldrich Corporation, St. Louis, Mo.) (10 ng/ml) and H2O2 (600 μM) to induce oxidative stress and challenged with increasing concentrations (10, 30, 50 nM) and PEDF (Chemicon International, Temecula, Calif.) (50 ng/ml) simultaneously with oxidative stress for 4 hr before harvesting for protein analysis. Cell extracts were made and protein concentrations were adjusted by Bio-Rad protein reagent and used for Western-blot analysis. […] Cells were analyzed to detect Hoechst-positive apoptotic cells.
(§2) Analysis of Bcl-2 and caspase-3 cleavage. Bcl-2 protein and caspase-3 cleavage were analyzed by Western-blot analysis. […] The membranes were probed with primary antibodies against Bcl-2 (Santa Cruz Biotechnology, Inc., Santa Cruz, Calif.) and cleaved caspase-3 (Asp-175) (Cell Signaling) at room temperature and treated for 20 minutes with the secondary antibody, goat anti-rabbit IgG: horseradish peroxidase, and horseradish peroxidase-conjugated anti-biotin antibody, then proteins were detected by using an ECL kit (Amersham Biosciences, Buckinghamshire, United Kingdom). […]

NPD1 synthesis [1] = assay: NPD1 synthesis and release from polarized primary human RPE cell monolayers (lipidomic analysis); assay type: cell-based; conditions: 72 hr
Procedure: Human RPE cells. Cultures of retinal pigment epithelial (RPE) cells were prepared. RPE cells were seeded onto Millicell-HA culture plate inserts (Millipore, Bradford, Mass.), placed in 24-well plates, and allowed to reach confluence. Consent for use of tissue for research was obtained in compliance with Federal and State law and institutional regulations. Cultures were maintained in Chee's essential replacement medium until the experiments were performed as described in J. Hu and D. Bok (2001) Mol Vis 7:14-19. The medium includes Eagle's minimal essential medium with calcium (MEM, Irvine Scientific, Irvine, Calif.), 1% heat-inactivated calf serum (JRH Bioscience, Lennexo, Kans.), amino acid supplements, and 1% bovine retinal extract. The Millicell-HA filter inserts allow separate manipulation of the culture media bathing the apical and basal surfaces of the RPE monolayer and measurement of the transepithelial resistance (TER), which provides a measure of cell differentiation and confluency. Cultures were used for experiments once they developed a TER of at least 400 Ω·cm^2, as measured by an Epithelial Volt-ohmmeter (EVOM, World Precision Instruments, New Haven, Conn.).
Exposure of RPE cells to growth factors. […] […] The lower chamber was filled with 500 μl media (bathing the basal cell monolayer surface) containing 0.1% HSA. Cells were incubated for 72 hours, then apical and basal media were removed and collected for analysis. After allowing the cells to rest for at least 72 hours on fresh media, the experiments were repeated.
Lipidomic analysis. Human RPE primary cell cultures or ARPE-19 cells were separated from culture media and washed with 1 ml PBS. After addition of 1 ml methanol, cells were scraped from plates or millicell membranes and collected for lipid extraction. Media was spun-down to separate cell debris, then 350 μl were collected in 1 ml of cold chloroform:methanol (1:1). Protein precipitates were then separated by centrifugation at 1500×g (5 min, 4° C.). Lipid extracts were collected, and kept under nitrogen at −80° C. until solid-phase purification; extracts were pre-equilibrated at pH 3.0 in 10% methanol/water, then loaded to 500 mg C18 columns (Varian, Inc., Palo Alto, Calif.), and eluted with 1% methanol/ethyl acetate. Eluates were concentrated on a N2 stream evaporator. Samples were loaded to a liquid chromatograph-tandem mass spectrometer (LC-TSQ Quantum, Thermo-Finnigan; Thermo Fisher Scientific, Waltham, Mass.) installed with a Biobasic-AX column (Thermo-Hypersil-Keystone, Thermo Fisher Scientific, Waltham, Mass.) (100 mm\2.1 mm, 5-μm particle sizes), and eluted in a linear gradient [100% solution A (40:60:0.01 methanol/water/acetic acid pH 4.5) to 100% solution B (99.99:0.01 methanol/acetic acid)], at a flow rate of 300 μl/min for 30 minutes. LC effluents were diverted to an electro-spray-ionization probe (ESI) on a TSQ Quantum (Thermo-Finnigan, Thermo Fisher Scientific, Waltham, Mass.) triple quadrupole mass spectrometer. NPD1 and resolving D1 were obtained by biogenic synthesis as described in N. G. Bazan, D. L. Birkle, and T. S. Reddy (1984) Biochem Biophys Res Commun. 125:741-74, and V. L. Marcheselli et al. (2003) J. Biol. Chem. 278:43807-43817. Erratum in: (2003) J Biol Chem 278:51974. Other lipid standards (Cayman Chem. Ann Arbor, Mich.) were used for tuning and optimization and to create calibration curves. The instrument was set on full-scan mode, to detect parent ions, and selected reaction mode (SRM) for quantitative analysis, to detect product ions, simultaneously. The selected parent/product ions (m/z) and collision energy (v) obtained by running on negative ion detection mode were: 359.2/153.1/20 for NPD1, 343.2/281.2/18 for resolving D1, 351.2/195.0/22 for 20HO-LTB4 (used as internal standard), 327.2/283.3/16 for DHA, 311.3/267.3/20 Arachidonic Acid-d8 (used as internal standard, IS).
Neurotrophins activated NPD1 synthesis in cultured primary human RPE cells. […]

NPD1 synthesis [2] = assay: NPD1 synthesis in cultured ARPE-19 cells (lipidomic analysis); assay type: cell-based, human; conditions: serum starvation/H2O2/TNFα oxidative stress for the combination
Procedure: Exposure of ARPE-19 cells to growth factors. Cells at 75-80% confluence (72 hr growth in DMEM/F12+10% FBS) were serum-starved for 2 hr before exposure to growth factors. The serum-starved cells were treated with TNF-α (Sigma-Aldrich Corporation, St. Louis, Mo.) (10 ng/ml) and H2O2 (600 μM) to induce oxidative stress and challenged with increasing concentrations (10, 30, 50 nM) and PEDF (Chemicon International, Temecula, Calif.) (50 ng/ml) simultaneously with oxidative stress for 4 hr before harvesting for protein analysis. Cell extracts were made and protein concentrations were adjusted by Bio-Rad protein reagent and used for Western-blot analysis. To study neuroprotection by DHA and PEDF in the oxidative stress-induced ARPE-19 cells, 72 hr cells were serum-starved for 8 hr before the introduction of oxidative stress and challenged with DHA and PEDF for 15 hr. Cells were analyzed to detect Hoechst-positive apoptotic cells.
Lipidomic analysis. Human RPE primary cell cultures or ARPE-19 cells were separated from culture media and washed with 1 ml PBS. After addition of 1 ml methanol, cells were scraped from plates or millicell membranes and collected for lipid extraction. […] The instrument was set on full-scan mode, to detect parent ions, and selected reaction mode (SRM) for quantitative analysis, to detect product ions, simultaneously. […]

Bid, Bax, and Bad = assay: Pro-apoptotic protein expression in ARPE-19 cells under serum starvation/H2O2/TNFα oxidative stress (Western blot); assay type: cell-based, human; conditions: DHA 10 to 50 nM, with or without PEDF
Procedure: as §1, §2

B1: PEDF: pigment epithelium-derived factor, a member of the serine protease inhibitor (serpin) family (protein, UniProt P36955 20-418, looked up)
Pigment epithelium-derived …: QNPASPPEEGSPDPDSTGALVEEEDPFFKVPVNKLAAAVSNFGYDLYRVRSSTSPTTNVLLSPLSVATALSALSLGAEQRTESIIHRALYYDLISSPDIHGTYKELLDTVTAPQKNLKSASRIVFEKKLRIKSSFVAPLEKSYGTRPRVLTGNPRLDLQEINNWVQAQMKGKLARSTKEIPDEISILLLGVAHFKGQWVTKFDSRKTSLEDFYLDEERTVRVPMMSDPKAVLRYGLDSDLSCKIAQLPLTGSMSIIFFLPLKVTQNLTLIEESLTSEFIHDIDRELKTVQAVLTVPKLKLSYEGEVTKSLQEMKLQSLFDSPDFSKITGKPIKLTQVEHRAGFEWNEDGAGTTPSPGLQPAHLTFPLDYHLNQPFIFVLRDTDTGALLFIGKILDPRGP
For B1, the “Bcl-2 and Bfl-1 anti-apoptotic protein expression” value (Bcl-2 and Bfl-1) was “unable to alter the expression of pro- and anti-apoptotic proteins”, the “NPD1 synthesis and release through the apical surface” value (NPD1 synthesis [1]; growth factors 20 ng/ml added to apical medium) was “by far the most potent stimulator of NPD1 synthesis” and the “NPD1 release, neurotrophin added to the apical medium” value (NPD1 synthesis [1]; increasing concentrations) was “concentration-dependent increases in NPD1 release only on the apical side”. For the same molecule, the “NPD1 release, neurotrophin added to the basal medium” value (NPD1 synthesis [1]; increasing concentrations) was “much less NPD1 release on the apical side”, the “NPD1 synthesis in ARPE-19 cells” value (NPD1 synthesis [2]) was “up-regulate NPD1 synthesis” and the “Bid, Bax and Bad pro-apoptotic protein expression” value (Bid, Bax, and Bad) was “unable to alter the expression of pro- and anti-apoptotic proteins”.
